Reference: patent publication US9176064B2, “Bisubstrate fluorescent probes for protein kinase CK2” (University of Tartu, priority 2012, dated 2015)
Where a SMILES comes first, the peptide text is derived from it. [ ]: non-standard residue; d: D form. The star is where a group is joined. X1 = O=C(CCCCCCCn1cnc2c(Br)c(Br)c(Br)c(Br)c21)*

Experiments:
Assay in all cases: Kinase panel residual activity
Format in all cases: biochemical
Conditions in all cases: compound at 1 micromolar
[1] = biological target: T1, MST2 (Homo sapiens, UniProt Q13188)
T1 sequence (Q13188 1-491): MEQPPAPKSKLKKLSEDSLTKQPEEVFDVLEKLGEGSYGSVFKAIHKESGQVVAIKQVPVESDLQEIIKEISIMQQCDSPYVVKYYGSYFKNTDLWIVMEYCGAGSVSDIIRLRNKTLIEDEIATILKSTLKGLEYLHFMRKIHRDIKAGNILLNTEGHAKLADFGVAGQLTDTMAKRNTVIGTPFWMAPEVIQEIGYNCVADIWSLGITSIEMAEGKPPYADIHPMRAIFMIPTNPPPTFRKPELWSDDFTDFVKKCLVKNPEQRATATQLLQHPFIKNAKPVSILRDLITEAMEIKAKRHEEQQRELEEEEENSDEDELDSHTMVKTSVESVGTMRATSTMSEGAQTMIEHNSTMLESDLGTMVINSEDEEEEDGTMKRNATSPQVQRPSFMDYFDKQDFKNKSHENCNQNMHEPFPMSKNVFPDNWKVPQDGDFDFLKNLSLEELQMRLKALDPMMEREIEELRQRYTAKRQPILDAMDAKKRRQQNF

[2] = biological target: JNK3 (Homo sapiens, UniProt P53779)
[3] = biological target: T2, GCK (Homo sapiens, UniProt Q12851)
T2 sequence (Q12851 1-820): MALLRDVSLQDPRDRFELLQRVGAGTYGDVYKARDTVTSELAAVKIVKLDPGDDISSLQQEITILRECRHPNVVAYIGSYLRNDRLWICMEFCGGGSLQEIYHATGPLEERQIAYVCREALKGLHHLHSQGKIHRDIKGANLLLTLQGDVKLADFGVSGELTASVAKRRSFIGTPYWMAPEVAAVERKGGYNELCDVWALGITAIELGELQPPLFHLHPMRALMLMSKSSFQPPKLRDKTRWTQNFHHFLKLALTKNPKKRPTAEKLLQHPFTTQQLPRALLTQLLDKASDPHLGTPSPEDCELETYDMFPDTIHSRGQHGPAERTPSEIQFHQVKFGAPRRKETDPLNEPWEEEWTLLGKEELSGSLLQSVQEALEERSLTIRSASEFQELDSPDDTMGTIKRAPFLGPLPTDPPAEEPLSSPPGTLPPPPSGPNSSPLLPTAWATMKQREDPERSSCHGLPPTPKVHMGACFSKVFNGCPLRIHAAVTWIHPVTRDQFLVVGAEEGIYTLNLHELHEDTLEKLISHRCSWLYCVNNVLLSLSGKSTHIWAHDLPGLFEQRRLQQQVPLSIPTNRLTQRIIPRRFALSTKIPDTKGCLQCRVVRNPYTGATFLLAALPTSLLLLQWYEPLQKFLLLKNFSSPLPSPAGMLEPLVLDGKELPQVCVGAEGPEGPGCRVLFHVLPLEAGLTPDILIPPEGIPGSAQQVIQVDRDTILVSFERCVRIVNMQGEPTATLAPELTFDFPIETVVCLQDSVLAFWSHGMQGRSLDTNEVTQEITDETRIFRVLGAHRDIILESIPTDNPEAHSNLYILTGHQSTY

[4] = biological target: CLK2 (Homo sapiens, UniProt P49760)
[5] = biological target: NEK6 (Homo sapiens, UniProt Q9HC98)
[6] = biological target: CK1δ (Homo sapiens, UniProt P48730)
[7] = biological target: MARK1 (Homo sapiens, UniProt Q9P0L2)
[8] = biological target: T3, ULK1 (Homo sapiens, UniProt O75385)
T3 sequence (O75385 1-1050): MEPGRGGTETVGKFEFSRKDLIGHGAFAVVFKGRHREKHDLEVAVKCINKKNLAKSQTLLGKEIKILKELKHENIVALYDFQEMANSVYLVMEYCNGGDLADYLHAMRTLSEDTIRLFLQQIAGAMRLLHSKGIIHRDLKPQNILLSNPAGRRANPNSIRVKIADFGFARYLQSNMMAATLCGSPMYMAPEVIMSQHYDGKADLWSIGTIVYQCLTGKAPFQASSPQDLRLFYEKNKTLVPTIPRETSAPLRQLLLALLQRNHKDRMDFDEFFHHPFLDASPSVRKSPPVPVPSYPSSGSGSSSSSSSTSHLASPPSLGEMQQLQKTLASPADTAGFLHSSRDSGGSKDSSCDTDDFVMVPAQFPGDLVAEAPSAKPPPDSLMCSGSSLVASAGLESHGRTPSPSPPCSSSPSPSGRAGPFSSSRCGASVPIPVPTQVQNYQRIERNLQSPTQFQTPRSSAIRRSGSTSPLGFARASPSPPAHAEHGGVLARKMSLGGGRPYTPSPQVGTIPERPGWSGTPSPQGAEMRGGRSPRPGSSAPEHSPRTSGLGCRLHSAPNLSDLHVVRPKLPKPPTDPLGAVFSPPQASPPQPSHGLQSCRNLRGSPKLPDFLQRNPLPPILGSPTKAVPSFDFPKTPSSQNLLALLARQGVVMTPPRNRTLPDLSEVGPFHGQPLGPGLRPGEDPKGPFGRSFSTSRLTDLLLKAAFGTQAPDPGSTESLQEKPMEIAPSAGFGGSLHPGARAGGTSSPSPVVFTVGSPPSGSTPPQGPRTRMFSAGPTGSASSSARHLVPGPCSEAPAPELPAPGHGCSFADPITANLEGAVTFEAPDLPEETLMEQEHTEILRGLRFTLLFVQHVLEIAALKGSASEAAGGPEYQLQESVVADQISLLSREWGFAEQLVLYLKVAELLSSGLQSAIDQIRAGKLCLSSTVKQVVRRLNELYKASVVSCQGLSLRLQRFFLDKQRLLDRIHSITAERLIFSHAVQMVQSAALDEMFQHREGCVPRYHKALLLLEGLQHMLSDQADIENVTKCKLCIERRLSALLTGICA

JNK3, sequence (P53779 whole entry, species assumed): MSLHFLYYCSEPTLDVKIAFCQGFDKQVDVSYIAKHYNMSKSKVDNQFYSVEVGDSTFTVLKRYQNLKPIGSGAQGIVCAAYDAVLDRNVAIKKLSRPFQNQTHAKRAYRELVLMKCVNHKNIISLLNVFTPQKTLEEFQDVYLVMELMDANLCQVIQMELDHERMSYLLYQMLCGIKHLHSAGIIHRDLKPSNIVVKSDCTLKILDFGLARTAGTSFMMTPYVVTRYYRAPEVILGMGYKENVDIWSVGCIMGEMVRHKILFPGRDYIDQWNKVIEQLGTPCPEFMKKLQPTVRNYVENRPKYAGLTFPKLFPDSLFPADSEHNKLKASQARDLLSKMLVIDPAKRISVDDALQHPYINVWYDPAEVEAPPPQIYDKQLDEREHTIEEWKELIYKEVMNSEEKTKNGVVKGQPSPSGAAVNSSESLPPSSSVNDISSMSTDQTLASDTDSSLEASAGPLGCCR
NEK6, sequence (Q9HC98 whole entry, species assumed): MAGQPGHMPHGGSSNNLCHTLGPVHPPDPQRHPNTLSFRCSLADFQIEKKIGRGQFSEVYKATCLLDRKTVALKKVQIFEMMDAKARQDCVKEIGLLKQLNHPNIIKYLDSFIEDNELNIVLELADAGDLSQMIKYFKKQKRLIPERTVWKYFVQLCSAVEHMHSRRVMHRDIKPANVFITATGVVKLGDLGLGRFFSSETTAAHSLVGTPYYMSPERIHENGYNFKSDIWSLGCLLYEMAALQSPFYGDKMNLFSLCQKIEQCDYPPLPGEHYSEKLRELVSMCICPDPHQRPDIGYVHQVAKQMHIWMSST
CLK2, sequence (P49760 whole entry, species assumed): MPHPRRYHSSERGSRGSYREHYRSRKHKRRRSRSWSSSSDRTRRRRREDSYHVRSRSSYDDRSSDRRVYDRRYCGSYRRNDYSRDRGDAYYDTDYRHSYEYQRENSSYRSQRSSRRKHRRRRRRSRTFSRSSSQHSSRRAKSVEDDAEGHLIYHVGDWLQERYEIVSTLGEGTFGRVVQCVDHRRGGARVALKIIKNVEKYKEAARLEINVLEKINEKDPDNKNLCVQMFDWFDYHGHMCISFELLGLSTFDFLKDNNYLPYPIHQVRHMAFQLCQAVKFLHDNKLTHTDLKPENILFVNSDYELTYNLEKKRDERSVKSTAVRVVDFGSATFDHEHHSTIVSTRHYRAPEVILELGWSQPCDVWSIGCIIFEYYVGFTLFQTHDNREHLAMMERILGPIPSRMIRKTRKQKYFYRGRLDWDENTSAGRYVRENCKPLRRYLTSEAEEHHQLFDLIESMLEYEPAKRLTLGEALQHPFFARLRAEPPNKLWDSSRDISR
CK1δ, sequence (P48730 whole entry): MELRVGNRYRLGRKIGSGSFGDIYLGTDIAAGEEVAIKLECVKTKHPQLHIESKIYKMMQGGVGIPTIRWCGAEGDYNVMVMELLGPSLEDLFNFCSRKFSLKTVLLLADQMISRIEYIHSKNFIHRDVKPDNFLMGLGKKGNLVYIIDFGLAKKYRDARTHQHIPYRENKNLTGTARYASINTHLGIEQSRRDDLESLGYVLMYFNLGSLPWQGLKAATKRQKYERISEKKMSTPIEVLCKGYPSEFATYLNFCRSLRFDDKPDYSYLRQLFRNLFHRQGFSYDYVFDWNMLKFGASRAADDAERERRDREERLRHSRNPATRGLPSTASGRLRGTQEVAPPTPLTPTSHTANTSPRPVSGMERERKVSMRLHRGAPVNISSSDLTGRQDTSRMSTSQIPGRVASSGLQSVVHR
MARK1, sequence (Q9P0L2 whole entry, species assumed): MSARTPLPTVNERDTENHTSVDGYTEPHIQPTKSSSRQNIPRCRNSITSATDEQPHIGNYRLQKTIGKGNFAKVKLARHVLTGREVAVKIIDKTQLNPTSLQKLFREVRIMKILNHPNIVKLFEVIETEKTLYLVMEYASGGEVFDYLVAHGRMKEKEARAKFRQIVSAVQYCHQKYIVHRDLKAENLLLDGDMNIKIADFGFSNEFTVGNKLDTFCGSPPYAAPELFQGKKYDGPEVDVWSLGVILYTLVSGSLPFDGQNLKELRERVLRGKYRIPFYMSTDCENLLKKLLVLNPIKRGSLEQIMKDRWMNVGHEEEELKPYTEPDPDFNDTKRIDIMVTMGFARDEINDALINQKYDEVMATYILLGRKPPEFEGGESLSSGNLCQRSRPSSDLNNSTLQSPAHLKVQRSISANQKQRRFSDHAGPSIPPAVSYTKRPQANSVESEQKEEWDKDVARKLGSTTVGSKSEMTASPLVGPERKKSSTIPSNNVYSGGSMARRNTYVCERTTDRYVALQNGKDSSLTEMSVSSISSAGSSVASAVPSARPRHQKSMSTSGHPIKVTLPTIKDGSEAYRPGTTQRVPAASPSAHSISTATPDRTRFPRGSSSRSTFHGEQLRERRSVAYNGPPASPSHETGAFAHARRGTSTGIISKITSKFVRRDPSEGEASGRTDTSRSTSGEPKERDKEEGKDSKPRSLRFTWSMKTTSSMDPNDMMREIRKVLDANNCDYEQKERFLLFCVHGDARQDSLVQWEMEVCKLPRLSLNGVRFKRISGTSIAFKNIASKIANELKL

NCCCC[C@H](NC(=O)[C@H](CC(=O)O)NC(=O)[C@H](CC(=O)O)NC(=O)[C@H](CC(=O)O)NC(=O)[C@H](CC(=O)O)NC(=O)[C@H](CC(=O)O)NC(=O)[C@@H](CC(=O)O)NC(=O)CCCCCCCn1cnc2c(Br)c(Br)c(Br)c(Br)c21)C(=O)O [TBBI-OcA-(D-Asp)-(L-Asp)5-(L-Lys)-OH] (X1-[dD]DDDDDK-OH)
remaining activity at 1 µM [1]: 99% | remaining activity at 1 µM [2]: 85% | remaining activity at 1 µM [3]: 95% | remaining activity at 1 µM [4]: 24% | remaining activity at 1 µM [5]: 121% | remaining activity at 1 µM [6]: 49% | remaining activity at 1 µM [7]: 83% | remaining activity at 1 µM [8]: 111%
